Measured values taken from US7078174 (WALTER AND ELIZA HALL INSTITUTE OF MEDICAL RESEARCH, dated 2006).
Values belong to the binder of their own block, whether it stands above or below them.

Legend:
[1] = molecular target: T1, FLAG-tagged SSB-1 truncated form lacking only the SOCS box (mouse, UniProt Q9D5L7 1-231, limits assumed); test: co-immunoprecipitation with anti-myc from transfected 293T cells, Western blot with anti-FLAG
T1 construct: domain: SSB-1 lacking only the SOCS box; Transiently expressed in 293T cells; also called truncated form of SSB-1 lacking only the SOCS box
T1 sequence: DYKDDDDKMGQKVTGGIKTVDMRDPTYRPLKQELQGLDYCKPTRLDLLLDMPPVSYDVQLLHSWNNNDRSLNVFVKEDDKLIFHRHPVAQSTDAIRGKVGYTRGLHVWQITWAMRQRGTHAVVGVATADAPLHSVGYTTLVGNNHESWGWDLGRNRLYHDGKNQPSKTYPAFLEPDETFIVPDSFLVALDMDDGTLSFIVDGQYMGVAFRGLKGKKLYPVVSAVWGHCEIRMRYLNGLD
From the text: To further confirm the generality of this interaction for other proteins containing a SOCS box, 293T fibroblasts were transfected with N-terminally FLAG-tagged WSB-2 or SSB-1 along with elongin B containing a FLAG epitope or elongin C containing a myc epitope.

[2] = molecular target: T2, elongin C (endogenous, murine M1 cells) (murine, UniProt P83940 1-112); test: anti-FLAG M2 immunoprecipitation from M1 cells, FLAG peptide elution, Western blot
T2 construct: Endogenous protein from cell lysate; present together with elongin B; also called 15 kDa band
Description: FIG. 2 is a photographic representation showing competition of SOCS-1 SOCS box interaction with elongin C. Biotinylated SOCS-1 SOCS box peptide was immobilized on streptavidin-agarose resin and used to affinity purify interacting proteins from M1 cellular extracts in the presence (+) or absence (–) of […] competing non-biotinylated SOCS box peptides. Proteins were separated by SDS-PAGE on a 4–15% w/v acrylamide gel, and bands were visualized by silver staining. Soluble SOCS box peptides corresponding to SOCS-1, ASB-2 and WSB-2 prevented binding of elongin C to immobilized SOCS-1 SOCS box FIG. 3 is a photographic representation showing interaction of SOCS-1 with endogenous elongins B and C. Cellular extracts from M1 cells stably expressing either full-length SOCS-1 or SOCS-1 lacking SOCS box (both proteins were N-terminally FLAG-tagged) were incubated with anti-FLAG antibody M2 resin and bound cellular proteins were eluted from the columns with FLAG peptide as described in Materials and Methods. Lanes 1–3 correspond to column eluates 3 to 5 from M1 cells expressing full-length SOCS-1 and lanes 4–6 correspond to column eluates 3 to 5 from M1 cells expressing SOCS-1 lacking SOCS box. The panels from top to bottom correspond to Western blot analyses by anti-FLAG, anti-elongin C, anti-elongin B, and a mixture of anti-elongin B and anti-elongin C, respectively. […]

[3] = molecular target: JAK1 (endogenous, M1 cells) (murine, UniProt P52332 1-1153); test: anti-FLAG affinity column from unstimulated M1 cells, FLAG peptide elution, Western blot
From the text: (§1) The inventors passed lysates from 10^9 unstimulated M1 cells expressing FLAG-tagged SOCS-1 through an anti-FLAG affinity column which was then eluted with FLAG peptide. The eluate was then subjected to SDS-PAGE and the proteins were Western blotted. The blot was then probed with anti-FLAG antibodies to confirm the presence of SOCS-1 and with a range of antibodies against proteins thought to interact with SOCS-1 (FIG. 7). It can be seen that SOCS-1 is capable of forming a complex with elongin B and elongin C, cullin 2, as well as JAK1 and gp130. To determine whether proteins in this complex interact directly or indirectly with SOCS-1, or whether all the proteins can be found together in a single complex, or whether separate complexes are, for example, formed between SOCS-1, JAK-1 and gp130 on one hand and between SOCS-1, elongin B and C and cullin-2, is addressed in part by performing the primary immunoprecipitation using a different antibody.

[4] = molecular target: T3, gp130 (endogenous, M1 cells) (murine, UniProt Q00560 23-917); test: as above
T3 sequence (looked up): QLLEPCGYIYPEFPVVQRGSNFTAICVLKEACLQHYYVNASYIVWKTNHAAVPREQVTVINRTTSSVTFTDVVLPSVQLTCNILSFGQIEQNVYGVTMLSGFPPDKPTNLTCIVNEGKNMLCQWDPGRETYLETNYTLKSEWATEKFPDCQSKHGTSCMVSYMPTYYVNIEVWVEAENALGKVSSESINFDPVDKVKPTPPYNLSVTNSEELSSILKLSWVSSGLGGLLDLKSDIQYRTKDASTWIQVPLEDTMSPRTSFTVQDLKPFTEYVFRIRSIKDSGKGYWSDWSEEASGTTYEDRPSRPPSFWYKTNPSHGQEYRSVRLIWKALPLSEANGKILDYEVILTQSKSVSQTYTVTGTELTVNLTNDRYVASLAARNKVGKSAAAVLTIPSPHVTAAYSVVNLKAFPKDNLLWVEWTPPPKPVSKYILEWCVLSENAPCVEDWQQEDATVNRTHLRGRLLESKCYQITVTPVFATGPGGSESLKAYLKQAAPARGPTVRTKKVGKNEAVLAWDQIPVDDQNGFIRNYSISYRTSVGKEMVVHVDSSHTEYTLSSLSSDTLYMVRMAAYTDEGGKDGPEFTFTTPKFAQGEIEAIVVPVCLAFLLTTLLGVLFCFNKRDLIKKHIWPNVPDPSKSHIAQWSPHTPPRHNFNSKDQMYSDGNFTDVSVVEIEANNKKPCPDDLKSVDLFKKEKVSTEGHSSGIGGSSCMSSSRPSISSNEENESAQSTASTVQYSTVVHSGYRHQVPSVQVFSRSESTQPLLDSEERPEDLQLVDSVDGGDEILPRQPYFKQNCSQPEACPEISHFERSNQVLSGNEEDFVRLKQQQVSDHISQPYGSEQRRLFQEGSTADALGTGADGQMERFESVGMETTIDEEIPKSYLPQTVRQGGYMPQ
From the text: as §1

[5] = molecular target: cullin 2 (endogenous, M1 cells) (murine, UniProt Q9D4H8 1-745); test: as above
From the text: as §1

[6] = molecular target: T4, GST (glutathione-S-transferase control) (UniProt P08515 1-218 = GST, covalently coupled to NHS-activated Sepharose resin); test: GST-Sepharose pull-down from M1 cell lysate, Coomassie gel and Western blot
T4 construct: also called GST-Sepharose; GST control
Description: M1 cells (2 ×10^10) were lysed on ice for 30 min in 100 ml of lysis buffer supplemented with protease inhibitors (Complete Cocktail tablets; Boehringer Mannheim, Mannheim, Germany), 1 mM PMSF, 1 mM Na_3VO_4 and 1 mM NaF. The total cell lysate was centrifuged at 15,000 rpm (SS34 rotor) for 15 min at 4° C. and the clarified supernatant pre-incubated with 1 ml of GST-Sepharose resin for 2 h at 4° C. Half the GST-Sepharose-depleted M1 cell lysate was incubated with 1 ml of GST-SOCS-1 SOCS box- and the other half with GST-SOCS-3 SOCS box-Sepharose resin for 2 h at 4° C. The affinity resins were washed with 40 ml of lysis buffer and then eluted with 8×0.5 ml of elation buffer. Eluates were concentrated to ~40 μl, mixed with 15 μl of 4×SDS sample buffer containing 0.4 M DTT and resolved on a 14% polyacrylamide gel (Novex). The gel was stained for 5 min with 0.1% w/v Coomassie blue in 50% w/v methanol and destained in 12% w/v methanol and 7% w/v acetic acid.
Isolated SOCS box sequences were used as affinity reagents to identify interacting proteins in cell lysates. […] (GST) fusion proteins containing the SOCS box sequences from SOCS-1 or SOCS-3 were coupled to Sepharose beads and used as affinity resins to bind proteins from M1 cell lysates. […]

Chain of cullin 2 (endogenous, M1 cells) (Q9D4H8 whole entry): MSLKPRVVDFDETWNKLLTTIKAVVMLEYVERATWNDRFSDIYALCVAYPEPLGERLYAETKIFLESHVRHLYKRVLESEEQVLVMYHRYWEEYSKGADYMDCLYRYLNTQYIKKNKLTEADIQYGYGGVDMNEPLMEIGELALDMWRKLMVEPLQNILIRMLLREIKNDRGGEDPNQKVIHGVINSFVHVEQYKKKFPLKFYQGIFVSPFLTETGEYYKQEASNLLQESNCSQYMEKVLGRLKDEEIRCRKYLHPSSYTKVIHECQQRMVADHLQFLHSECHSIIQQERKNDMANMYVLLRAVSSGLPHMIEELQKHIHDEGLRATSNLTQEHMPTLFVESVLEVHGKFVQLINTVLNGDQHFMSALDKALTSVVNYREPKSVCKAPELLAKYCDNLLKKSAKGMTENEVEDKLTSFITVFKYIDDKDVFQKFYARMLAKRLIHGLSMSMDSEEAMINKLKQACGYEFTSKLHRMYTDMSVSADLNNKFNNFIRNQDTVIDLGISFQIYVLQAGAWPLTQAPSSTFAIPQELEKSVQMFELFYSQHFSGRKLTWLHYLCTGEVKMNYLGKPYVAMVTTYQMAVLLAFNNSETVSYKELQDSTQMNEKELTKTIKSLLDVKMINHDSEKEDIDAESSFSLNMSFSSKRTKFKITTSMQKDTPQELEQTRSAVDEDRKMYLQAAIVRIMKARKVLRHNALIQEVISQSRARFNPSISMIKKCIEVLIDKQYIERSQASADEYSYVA
Chain of JAK1 (endogenous, M1 cells) (P52332 whole entry): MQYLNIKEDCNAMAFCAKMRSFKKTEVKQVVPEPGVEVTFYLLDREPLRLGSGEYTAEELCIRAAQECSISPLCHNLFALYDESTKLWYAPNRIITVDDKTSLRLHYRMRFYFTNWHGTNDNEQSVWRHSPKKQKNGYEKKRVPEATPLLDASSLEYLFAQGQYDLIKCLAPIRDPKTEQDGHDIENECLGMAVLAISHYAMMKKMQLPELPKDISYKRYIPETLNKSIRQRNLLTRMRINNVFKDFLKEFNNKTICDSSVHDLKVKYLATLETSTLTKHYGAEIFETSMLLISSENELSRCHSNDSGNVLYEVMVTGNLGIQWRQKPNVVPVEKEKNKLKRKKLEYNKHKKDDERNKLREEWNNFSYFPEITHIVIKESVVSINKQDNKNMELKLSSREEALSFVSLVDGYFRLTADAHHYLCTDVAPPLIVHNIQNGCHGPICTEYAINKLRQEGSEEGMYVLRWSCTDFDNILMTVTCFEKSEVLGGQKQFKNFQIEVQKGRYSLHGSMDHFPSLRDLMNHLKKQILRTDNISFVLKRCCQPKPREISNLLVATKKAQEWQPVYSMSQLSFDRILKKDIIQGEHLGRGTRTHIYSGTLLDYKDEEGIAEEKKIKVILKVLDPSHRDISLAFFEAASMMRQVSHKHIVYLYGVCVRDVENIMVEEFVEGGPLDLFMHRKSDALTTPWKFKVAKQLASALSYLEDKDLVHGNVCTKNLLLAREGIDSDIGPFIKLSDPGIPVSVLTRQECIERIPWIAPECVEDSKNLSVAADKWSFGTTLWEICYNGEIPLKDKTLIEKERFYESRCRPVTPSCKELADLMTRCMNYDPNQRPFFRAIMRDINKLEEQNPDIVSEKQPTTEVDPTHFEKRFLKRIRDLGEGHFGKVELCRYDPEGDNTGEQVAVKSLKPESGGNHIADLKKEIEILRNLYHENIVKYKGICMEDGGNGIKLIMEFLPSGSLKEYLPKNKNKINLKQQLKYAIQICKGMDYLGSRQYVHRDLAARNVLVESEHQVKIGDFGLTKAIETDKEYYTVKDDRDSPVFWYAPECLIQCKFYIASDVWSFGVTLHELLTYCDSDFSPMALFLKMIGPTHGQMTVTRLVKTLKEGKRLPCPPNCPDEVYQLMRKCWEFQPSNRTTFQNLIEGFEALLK
T4 sequence (P08515 whole entry): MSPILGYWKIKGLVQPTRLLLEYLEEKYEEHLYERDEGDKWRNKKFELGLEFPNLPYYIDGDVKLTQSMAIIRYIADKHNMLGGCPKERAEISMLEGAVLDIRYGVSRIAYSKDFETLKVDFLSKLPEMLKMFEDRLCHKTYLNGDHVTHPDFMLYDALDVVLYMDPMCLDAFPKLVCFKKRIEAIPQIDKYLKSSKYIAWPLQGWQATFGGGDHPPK

binding result [1]: no binding
B1: elongin C containing a myc epitope (other, mouse)
chain: DQKLISEEDLMDGEEKTYGGCEGPDAMYVKLISSDGHEFIVKREHALTSGTIKAMLSGPGQFAENETNEVNFREIPSHVLSKVCMYFTYKVRYTNSSTEIPEFPIAPEIALELLMAANFLDC
notes: Transiently expressed in 293T cells; also called myc-elongin C

binding result [2]: binds | binding result [3]: binds | binding result [4]: binds | binding result [5]: binds
B2: N-terminally FLAG-tagged full-length SOCS-1 (other, mouse)
chain: DYKDDDDKMVARNQVAADNAISPAAEPRRRSEPSSSSSSSSPAAPVRPRPCPAVPAPAPGDTHFRTFRSHSDYRRITRTSALLDACGFYWGPLSVHGAHERLRAEPVGTFLVRDSRQRNCFFALSVKMASGPTSIRVHFQAGRFHLDGSRETFDCLFELLEHYVAAPRRMLGAPLRQRRVRPLQELCRQRIVAAVGRENLARIPLNPVLRDYLSSFPFQI
notes: Stably expressed in M1 cells; also called FLAG-tagged SOCS-1; intact SOCS-1

binding result [1]: no binding
B3: elongin B containing a FLAG epitope (other, mouse)
chain: DYKDDDDKMDVFLMIRRHKTTIFTDAKESSTVFELKRIVEGILKRPPEEQRLYKDDQLLDDGKTLGECGFTSQTARPQAPATVGLAFRADDTFEALRIEPFSSPPELPDVMKPQDSGGSANEQAVQ
notes: Transiently expressed in 293T cells; also called FLAG-elongin B

binding result [6]: no binding
B4: elongin B (endogenous, murine M1 cells) (other, UniProt P62869 1-118, looked up)
chain: MDVFLMIRRHKTTIFTDAKESSTVFELKRIVEGILKRPPEEQRLYKDDQLLDDGKTLGECGFTSQTARPQAPATVGLAFRADDTFEALRIEPFSSPPELPDVMKPQDSGGSANEQAVQ
notes: Endogenous protein from cell lysate; also called 18 kDa band
